# Reference: patent US20230272050A1, “BINDING PROTEIN SPECIFIC FOR THE SPIKE PROTEIN OF SEVERE ACUTE RESPIRATORY SYNDROME CORONA VIRUS 2 (SARS-COV-2)” (priority 2020, published 2023)
# Molecular target: mutant of SARS CoV-2 S protein (69del, 70del, Y144del, N501Y, A570D, D614G, P681H, T7161, S982A, D1118H) (Severe acute respiratory syndrome coronavirus 2, UniProt P0DTC2, A570D/D1118H/D614G/DEL144-144/N501Y/P681H/S982A/T716I)
substance,measurement,value
212434 (NAAVLDIAQHSATEEIWWLPNLTKQQKVWFIMSLTQDPSVSKEVLGEAQKLNDSQAPK) [compound 212434],"binding affinity to mutant S protein (B.1.1.7), qualitative",showed binding affinity
